This data set in a line: self-splicing fitness, log relative to wild type (ln ratio); higher = more splicing; Tetrahymena group I intron in knt gene, E. coli kanamycin selection, DiMSum; sequences stand for … in CUCUCU…GGAGGGAAAAGUUAUCAGGCAUGCACCUGGUAGCUAGUCUUUAAACCAAUAGAUUGCAUCGGUUUAAAAGGCAAGACCGUCAAAUUGCGGGAAAGGGGUCAACAGCCGUUCAGUACCAAGUCUCAGGGGAAACUUUGAGAUGGCCUUGCAAAGGGUAUGGUAAUAAGCUGACGGACAUGGUCCUAACCACGCAGCCAAGUCCUAAGUCAACAGAUCUUCUGUUGAUAUGGAUGCAGUUCACAGACUAAAUGUCGGUCGGGGAAGAUGUAUUCUUCUCAUAAGAUAUAGUCGGACCUCUCCUUAAUGGGAGCUAGCGGAUGAAGUGAUGCAACACUGGAGCCGCUGGGAACUAAUUUGUAUGCGAAAGUAUAUUGAUUAGUUUUGGAGUACUCGUGGUCG
The method, boiled down:
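The eight P1ex-region nucleotides of an intron in the knt kanamycin-resistance gene on pET-22b(+) were all randomised and the library put into E. coli BL21(DE3). Six replicate transformations were grown overnight at 37°C or 30°C on LB agar with or without 25 μg/mL kanamycin, together with 100 μg/mL carbenicillin, 50 μM IPTG and 0.2% rhamnose. Colonies were pooled and amplicon-sequenced on an Illumina HiSeq 2500. Fitness from DiMSum is the error-weighted combination of wild-type-normalised replicate fold changes, kanamycin over none.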

± gives the uncertainty stated by the source.

CCAAAGCAAUAUUACGGAUC: the “self-splicing fitness (ln)” value is -3.45 ± 0.23 (30 °C) and -2.47 ± 0.39 (37 °C). Consider CCUCAGCAAUAUUACGGAGC, for which the “self-splicing fitness (ln)” value reads like this: (30 °C) -4.55 ± 0.3; (37 °C) -2.91 ± 0.19.

In the case of AAUAAGCAAUAUUACGAGCG, the “self-splicing fitness (ln)” value reads like this: (30 °C) -1.5 ± 0.15; (37 °C) -0.155 ± 0.17. Take UGGAAGCAAUAUUACGAGUU: the “self-splicing fitness (ln)” value is -3.25 ± 0.19 (30 °C) and -1.8 ± 0.16 (37 °C). Regarding GCCGAGCAAUAUUACGUCGU, the “self-splicing fitness (ln)” value was -0.646 ± 0.081 (30 °C) and -0.197 ± 0.1 (37 °C). As to AUAAAGCAAUAUUACGGAUU, the “self-splicing fitness (ln)” value (30 °C) is -1.15 ± 0.077 and the “self-splicing fitness (ln)” value (37 °C) came out at 0.0214 ± 0.091. As to UUAGAGCAAUAUUACGAGAU, the “self-splicing fitness (ln)” value (37 °C) was -2.03 ± 0.43. Take GUGAAGCAAUAUUACGACUU: the “self-splicing fitness (ln)” value by setting is: (30 °C) -0.643 ± 0.056; (37 °C) -0.276 ± 0.084. Turning to UUAGAGCAAUAUUACGCGCG, the “self-splicing fitness (ln)” value runs as follows: (30 °C) -0.351 ± 0.16; (37 °C) 0.871 ± 0.18.

With AAGCAGCAAUAUUACGGUCA, the “self-splicing fitness (ln)” value is, setting by setting: (30 °C) -1.19 ± 0.088; (37 °C) 0.242 ± 0.1. For the sequence UGAGAGCAAUAUUACGCUAG, the “self-splicing fitness (ln)” value (30 °C) was -3.66 ± 0.47. With CGGCAGCAAUAUUACGUGCA, the “self-splicing fitness (ln)” value reads like this: (30 °C) -1.03 ± 0.27; (37 °C) -0.293 ± 0.23.

Take AAACAGCAAUAUUACGUAUC: the “self-splicing fitness (ln)” value (30 °C) is -3.98 ± 0.17 and the “self-splicing fitness (ln)” value (37 °C) is -1.97 ± 0.12.

For the sequence AACGAGCAAUAUUACGGUUU, the “self-splicing fitness (ln)” value runs as follows: (30 °C) -2.07 ± 0.079; (37 °C) -0.83 ± 0.089.

Take ACUAAGCAAUAUUACGCUAU: the “self-splicing fitness (ln)” value was -1.88 ± 0.072 (30 °C) and -1.84 ± 0.1 (37 °C). Consider AGUUAGCAAUAUUACGGUCU, for which the “self-splicing fitness (ln)” value (30 °C) is -0.221 ± 0.081 and the “self-splicing fitness (ln)” value (37 °C) is -0.0741 ± 0.087.

AACAAGCAAUAUUACGAAUU: the “self-splicing fitness (ln)” value is, setting by setting: (30 °C) -1.9 ± 0.091; (37 °C) -0.666 ± 0.12. As to AUUUAGCAAUAUUACGAGAG, the “self-splicing fitness (ln)” value (37 °C) was -2.7 ± 0.3. With GGACAGCAAUAUUACGACUC, the “self-splicing fitness (ln)” value is, setting by setting: (30 °C) -0.16 ± 0.078; (37 °C) 0.231 ± 0.097. With AUCUAGCAAUAUUACGAGUA, the “self-splicing fitness (ln)” value runs as follows: (30 °C) -2.58 ± 0.27; (37 °C) -1.53 ± 0.18. The like results for CGAGAGCAAUAUUACGGUAU were, in that order, -3.41 ± 0.28 and -2.88 ± 0.29. CUCUAGCAAUAUUACGCGAC: the “self-splicing fitness (ln)” value is, setting by setting: (30 °C) -3.14 ± 0.24; (37 °C) -2.75 ± 0.3. For the sequence GCAAAGCAAUAUUACGAACC, the “self-splicing fitness (ln)” value (30 °C) was -0.831 ± 0.13 and the “self-splicing fitness (ln)” value (37 °C) is -0.43 ± 0.17. For CCUCAGCAAUAUUACGUUUG, the “self-splicing fitness (ln)” value by setting is: (30 °C) -1.46 ± 0.093; (37 °C) -2.15 ± 0.14.

With UUAAAGCAAUAUUACGACUA, the “self-splicing fitness (ln)” value runs as follows: (30 °C) 0.243 ± 0.1; (37 °C) 0.643 ± 0.14.

As to UGGGAGCAAUAUUACGCGUC, the “self-splicing fitness (ln)” value (30 °C) is -0.5 ± 0.36.

Turning to UCCCAGCAAUAUUACGAUAC, the “self-splicing fitness (ln)” value was -2.17 ± 0.19 (30 °C) and -2.45 ± 0.44 (37 °C). Consider AUUCAGCAAUAUUACGGCUA, for which the “self-splicing fitness (ln)” value is 0.293 ± 0.09 (30 °C) and -0.022 ± 0.084 (37 °C). As for CGGAAGCAAUAUUACGCCAC, the “self-splicing fitness (ln)” value was -3.64 ± 0.18 (30 °C) and -2.78 ± 0.26 (37 °C). With GUCGAGCAAUAUUACGUUCC, the “self-splicing fitness (ln)” value reads like this: (30 °C) -1.99 ± 0.24; (37 °C) -0.593 ± 0.37. As to CCCAAGCAAUAUUACGACGU, the “self-splicing fitness (ln)” value reads like this: (30 °C) -2.11 ± 0.13; (37 °C) -2.43 ± 0.2. For AGUUAGCAAUAUUACGGGCU the same measures were -3.01 ± 0.28 and -1.79 ± 0.24. As for CGGCAGCAAUAUUACGUCAA, the “self-splicing fitness (ln)” value was -1.53 ± 0.11 (30 °C) and -1.43 ± 0.13 (37 °C). On to GAGAAGCAAUAUUACGGUCA, for which the “self-splicing fitness (ln)” value runs as follows: (30 °C) -0.263 ± 0.1; (37 °C) 0.383 ± 0.12. As for GCCAAGCAAUAUUACGUCUU, the “self-splicing fitness (ln)” value is, setting by setting: (30 °C) -3.28 ± 0.2; (37 °C) -2.38 ± 0.16. The like results for GCCCAGCAAUAUUACGAACU were, in that order, -1.26 ± 0.14 and -1 ± 0.14. The like results for GCUCAGCAAUAUUACGUUAC were, in that order, -1.56 ± 0.12 and -1.65 ± 0.14.

Regarding AGGAAGCAAUAUUACGUGCU, the “self-splicing fitness (ln)” value by setting is: (30 °C) -2.18 ± 0.17; (37 °C) -0.868 ± 0.16.

CUUGAGCAAUAUUACGUAAG: the “self-splicing fitness (ln)” value (30 °C) is -1.68 ± 0.1 and the “self-splicing fitness (ln)” value (37 °C) was -0.582 ± 0.13.

(Values after the supplement of paper PMC7877785.)
